Like-named read-outs stand apart in the source and are kept apart here.
Assays:
[1] = target: T1, CCK1R(Y140A) expressed in HEK-293 cells (human), P32238
T1 chain: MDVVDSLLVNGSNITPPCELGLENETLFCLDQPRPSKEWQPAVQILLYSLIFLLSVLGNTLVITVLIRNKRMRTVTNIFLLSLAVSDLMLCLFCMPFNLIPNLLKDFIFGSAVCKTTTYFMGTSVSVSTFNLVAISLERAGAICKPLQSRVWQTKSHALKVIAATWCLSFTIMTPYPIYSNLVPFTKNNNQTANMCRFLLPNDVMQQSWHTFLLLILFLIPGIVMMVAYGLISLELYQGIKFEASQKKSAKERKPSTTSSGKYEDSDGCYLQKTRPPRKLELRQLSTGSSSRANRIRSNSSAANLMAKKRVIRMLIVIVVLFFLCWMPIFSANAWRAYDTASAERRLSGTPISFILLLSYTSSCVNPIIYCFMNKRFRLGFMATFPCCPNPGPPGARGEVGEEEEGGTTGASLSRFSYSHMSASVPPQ

[2] = target: T2, CCK1R(sterol 7M) expressed in HEK-293 cells (human), P32238
T2 chain: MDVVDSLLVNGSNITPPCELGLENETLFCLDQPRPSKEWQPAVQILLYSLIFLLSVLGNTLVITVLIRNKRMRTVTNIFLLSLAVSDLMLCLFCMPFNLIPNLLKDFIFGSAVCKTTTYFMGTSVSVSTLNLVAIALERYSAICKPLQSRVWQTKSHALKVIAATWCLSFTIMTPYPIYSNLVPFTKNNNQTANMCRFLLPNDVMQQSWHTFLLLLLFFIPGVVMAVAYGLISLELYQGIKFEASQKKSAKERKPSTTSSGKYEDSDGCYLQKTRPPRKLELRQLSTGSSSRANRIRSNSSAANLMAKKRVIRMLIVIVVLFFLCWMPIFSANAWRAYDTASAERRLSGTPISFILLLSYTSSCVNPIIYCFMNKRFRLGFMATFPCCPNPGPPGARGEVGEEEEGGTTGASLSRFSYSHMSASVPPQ

[3] = target: T3, CCK2R(sterol 7M) expressed in HEK-293 cells (human), P32239
T3 chain: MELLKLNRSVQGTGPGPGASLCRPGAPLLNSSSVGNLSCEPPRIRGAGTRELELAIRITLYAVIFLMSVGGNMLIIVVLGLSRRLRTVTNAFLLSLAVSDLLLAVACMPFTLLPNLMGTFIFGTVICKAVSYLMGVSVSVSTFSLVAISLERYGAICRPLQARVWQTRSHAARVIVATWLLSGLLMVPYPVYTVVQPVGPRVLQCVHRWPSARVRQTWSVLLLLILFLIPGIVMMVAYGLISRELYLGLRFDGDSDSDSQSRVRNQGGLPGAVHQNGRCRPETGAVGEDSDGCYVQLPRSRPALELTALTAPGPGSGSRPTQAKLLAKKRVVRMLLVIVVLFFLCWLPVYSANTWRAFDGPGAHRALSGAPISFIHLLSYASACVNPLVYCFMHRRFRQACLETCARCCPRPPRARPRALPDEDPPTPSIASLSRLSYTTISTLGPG

[4] = target: T4, type 1 cholecystokinin receptor, wild type, expressed in CHO-K1 cells (human), P32238
T4 chain: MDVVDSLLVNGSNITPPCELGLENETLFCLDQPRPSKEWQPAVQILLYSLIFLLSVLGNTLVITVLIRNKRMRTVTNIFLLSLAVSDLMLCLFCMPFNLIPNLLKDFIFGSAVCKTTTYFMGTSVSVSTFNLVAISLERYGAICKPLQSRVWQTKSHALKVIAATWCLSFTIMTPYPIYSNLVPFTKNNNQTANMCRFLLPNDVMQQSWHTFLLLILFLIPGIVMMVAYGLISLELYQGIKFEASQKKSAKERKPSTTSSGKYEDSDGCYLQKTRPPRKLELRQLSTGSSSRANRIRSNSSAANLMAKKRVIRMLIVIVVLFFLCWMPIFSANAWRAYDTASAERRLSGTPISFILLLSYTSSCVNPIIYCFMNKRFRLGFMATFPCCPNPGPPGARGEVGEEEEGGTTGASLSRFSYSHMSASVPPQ

[5] = target: T5, type 1 cholecystokinin receptor, wild type, expressed in HEK-293 cells (human), P32238
T5 chain: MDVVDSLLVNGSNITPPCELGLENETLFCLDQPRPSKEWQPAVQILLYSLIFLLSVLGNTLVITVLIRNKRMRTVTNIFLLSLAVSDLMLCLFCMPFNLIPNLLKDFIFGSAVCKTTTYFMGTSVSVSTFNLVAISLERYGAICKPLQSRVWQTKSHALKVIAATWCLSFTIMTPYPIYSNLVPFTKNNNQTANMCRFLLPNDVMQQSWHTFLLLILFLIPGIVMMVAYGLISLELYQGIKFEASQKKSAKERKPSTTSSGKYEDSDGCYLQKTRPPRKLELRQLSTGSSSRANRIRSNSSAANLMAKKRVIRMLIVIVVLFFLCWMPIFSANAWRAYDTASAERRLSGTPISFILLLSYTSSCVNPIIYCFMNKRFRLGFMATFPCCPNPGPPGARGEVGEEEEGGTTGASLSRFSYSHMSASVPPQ

[6] = target: T6, type 1 cholecystokinin receptor, wild type, expressed in SRD15 cells (human), P32238
T6 chain: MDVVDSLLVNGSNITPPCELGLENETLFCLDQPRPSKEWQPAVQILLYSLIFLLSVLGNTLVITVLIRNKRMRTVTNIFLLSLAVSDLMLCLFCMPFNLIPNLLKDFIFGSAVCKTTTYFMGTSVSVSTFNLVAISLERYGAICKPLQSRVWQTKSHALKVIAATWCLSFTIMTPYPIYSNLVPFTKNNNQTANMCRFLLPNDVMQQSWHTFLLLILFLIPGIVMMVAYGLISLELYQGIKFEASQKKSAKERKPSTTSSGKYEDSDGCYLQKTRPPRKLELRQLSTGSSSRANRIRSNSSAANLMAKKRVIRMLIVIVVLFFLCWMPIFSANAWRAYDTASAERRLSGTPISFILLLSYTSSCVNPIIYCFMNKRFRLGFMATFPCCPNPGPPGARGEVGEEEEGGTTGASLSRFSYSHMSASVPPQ

[7] = target: T7, type 2 cholecystokinin receptor, wild type, expressed in HEK-293 cells (human), P32239
T7 chain: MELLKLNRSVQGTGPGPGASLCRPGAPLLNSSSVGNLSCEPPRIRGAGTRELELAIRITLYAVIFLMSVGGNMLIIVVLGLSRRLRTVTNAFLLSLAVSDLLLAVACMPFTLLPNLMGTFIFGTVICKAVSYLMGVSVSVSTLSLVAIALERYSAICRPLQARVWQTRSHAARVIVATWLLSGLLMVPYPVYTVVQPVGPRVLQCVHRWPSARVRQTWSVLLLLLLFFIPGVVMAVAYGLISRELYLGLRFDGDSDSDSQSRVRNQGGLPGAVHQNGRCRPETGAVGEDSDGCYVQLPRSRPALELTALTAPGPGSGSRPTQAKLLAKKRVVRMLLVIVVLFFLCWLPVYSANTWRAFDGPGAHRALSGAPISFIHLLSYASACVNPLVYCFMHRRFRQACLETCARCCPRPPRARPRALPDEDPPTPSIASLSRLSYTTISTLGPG

[8] = target: T1, CCK1R(Y140A) expressed in HEK-293 cells …; assay: radioligand binding
[9] = target: T2, CCK1R(sterol 7M) expressed in HEK-293 …; assay: radioligand binding
[10] = target: T3, CCK2R(sterol 7M) expressed in HEK-293 …; assay: radioligand binding
[11] = target: T5, type 1 cholecystokinin receptor, wild …; assay: radioligand binding
[12] = target: T7, type 2 cholecystokinin receptor, wild …; assay: radioligand binding
[13] = target: T1, CCK1R(Y140A) expressed in HEK-293 cells …; assay: radioligand binding
[14] = target: T2, CCK1R(sterol 7M) expressed in HEK-293 …; assay: radioligand binding
[15] = target: T3, CCK2R(sterol 7M) expressed in HEK-293 …; assay: radioligand binding
[16] = target: T4, type 1 cholecystokinin receptor, wild …; assay: radioligand binding
[17] = target: T5, type 1 cholecystokinin receptor, wild …; assay: radioligand binding
[18] = target: T6, type 1 cholecystokinin receptor, wild …; assay: radioligand binding
[19] = target: T7, type 2 cholecystokinin receptor, wild …; assay: radioligand binding

iCa^2+, pEC50; HEK-293 cells, + Chol [1]: 5.7 | iCa^2+, pEC50; HEK-293 cells, control [1]: 5.7 | iCa^2+, pEC50; HEK-293 cells, + Chol [2]: 6.8 | iCa^2+, pEC50; HEK-293 cells, control [2]: 6.7 | iCa^2+, pEC50; HEK-293 cells, + Chol [3]: 9.2 | iCa^2+, pEC50; HEK-293 cells, control [3]: 9.1 | iCa^2+, pEC50; CHO-CCK1R cells [4]: 5.3 | iCa^2+, pEC50; HEK-293 cells, + Chol [5]: 6.2 | iCa^2+, pEC50; HEK-293 cells, control [5]: 5.5 | iCa^2+, pEC50; SRD15-CCK1R cells [6]: 6.8 | iCa^2+, pEC50; SRD15-CCK1R cells + MβCD (cholesterol depleted) [6]: 5.7 | iCa^2+, pEC50; HEK-293 cells, + Chol [7]: 9.4 | iCa^2+, pEC50; HEK-293 cells, control [7]: 9.5 | pIC50 [8]: 4.3 | pIC50 [9]: < 4 | pIC50 [10]: 7.6 | pIC50 [11]: 4 | pIC50 [12]: 7.8 | pIC50 [13]: 4.3 | pIC50 [14]: < 4 | pIC50 [15]: 7.2 | pIC50 [16]: 4.5 | pIC50 [17]: 4.2 | pIC50 [18]: 5.5 | pIC50 [19]: 7.7
B1: CCK-4, C-terminal tetrapeptide of cholecystokinin (peptide)
chain: WMDF
modifications: not checked
